Where a chain is given by its changes, count along the chain named.

The target of assay [1] is KIR-Fc (purified recombinant "target"-Fc protein). As to the kind of experiment: phage ELISA on purified target-Fc; signal over non-specific control (e.g., IgG1-Fc).
The target is the same in assay [2]. As to the kind of experiment: phage ELISA on purified target-Fc; signal over non-specific control (e.g., IgG1-Fc); average where several clones share the sequence. (In an ELISA, binding on a coated surface is turned into a signal by an enzyme label.)
Assay [3] concerns the target T1, PD-L1-Fc (purified recombinant "target"-Fc protein) (UniProt Q9NZQ7 19-238).
T1 construct: also called B7-H1; not shown: Fc part of the fusion
Kind of assay: phage ELISA on purified target-Fc; signal over non-specific control (e.g., IgG1-Fc). Here is the method:
Selections were also performed using F1, F2, F3. C1 & C2 trinucleotide phosphoramidite libraries. In most cases, libraries were pooled prior to use in selection. By combining equal volumes of the individual libraries. Pool F (libraries F1, F2 and F3) and Pool C (libraries C1 and C2) were generated. These libraries were used in selections for DBDpp binders to 4-1BB/CD137 as well as a larger panel of purified recombinant “target”-Fc proteins, including CD47, CTLA4. DR5, KIR. LAG3, OX40, PD1, PD-L1 and TIM3. (Many of these targets are considered immuno-regulatory factors (Pardoll et al., Nat. Rev. Cancer 12:252-264 (2012)). After incubation of the target with the pools of DBDpp phage libraries, bound phage-target complexes were captured and separated from unbound phage with protein A beads (target proteins were Fc fusions). Alter three rounds of selection, rescued phage clones were screened by ELISA for binding to the selected target.
For each target, approximately 90 DBDpp phage clones were screened by ELISA for binding to the target protein and as well as a non-specific control (e.g., IgG1-Fc). […] In some instances, for the ELISA screening plate in which the majority of DBDpp clones were positive, the entire plate was sequenced.

T1 sequence (Q9NZQ7 19-238 limits assumed): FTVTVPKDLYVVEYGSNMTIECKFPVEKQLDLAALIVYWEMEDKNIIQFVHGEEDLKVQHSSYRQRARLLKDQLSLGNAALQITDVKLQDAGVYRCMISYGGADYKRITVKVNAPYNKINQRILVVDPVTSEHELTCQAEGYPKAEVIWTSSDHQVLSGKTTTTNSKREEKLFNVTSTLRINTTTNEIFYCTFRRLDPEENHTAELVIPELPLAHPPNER

B1: SEQ ID NO 37 (designed binder)
chain: MGSWLWFKIFLAEIKYFLEALGGSEAELAAFDFEIHAFHVELFAYKGKGNPEVEVLREVAAEIRWDLQAYRHN
Regarding B1, in assay [1], the ELISA ratio was found to be 4.17.

B2: SEQ ID NO 36 (designed binder)
chain: MGSWYEFYNRLYAIEIRLYALGGSEAELAAFEKEIAAFESELQAYKGKGNPEVERLRVRAAKIRVILQAYRHN
In the case of B2, the ELISA ratio in assay [2] turned out to be 4.24.

B3: SEQ ID NO 35 (designed binder)
chain: MGSWSEFYNRLDAIESRLLALGGSEAELALFEIQIARFEKVLQAYKGKGNPEVEALRGEARAIFAELYAYRHN
Regarding B3, in assay [2], the ELISA ratio amounted to 8.4.

B4: SEQ ID NO 60 (designed binder)
chain: MGSWYEFTVRLEAIHERLKALGGSEAELAAFEKEIAAFESELQAYKGKGNPEVEILRDDAAFIRRFLQAYRHN
notes: also called DBDpp; library F3
B4: the ELISA ratio in assay [3] came to 17.3 ratio.

B5: SEQ ID NO 61 (designed binder)
chain: B4 chain with T8D, V9D, E12N, E16D, K19Q, I55D
notes: also called DBDpp; library F3
On to B5, for which the ELISA ratio in assay [3] turned out to be 12.2 ratio.

For the origin of these results see patent publication US20200362046A1 (published 2020).
